Our source for the binding signal (log2 fold vs WT) and binding signal values is patent US20250163410.

The test system of this data set is VchCAST TnsB transposase (Tn6677; assayed with TnsA-TnsC and TniQ-Cascade) (Vibrio cholerae). The experiment in a line: cell_activity. The following applies: for binding signal: no IPTG.

Take “ACATTTGTTGATACAACCATAAAATGATAATTACACCCATAAATTGATAATTATCACACCCATACCTTGATATTGCCTCTGATCATAGTCAGACCAACATTGCTACGACCCGTATTCGCACCGACAC (double strand) [Right end variant 1100]”: for the setting “T-RL, second replicate 1.4027”, the binding signal (log2 fold vs WT) is 1.3. For “TGTGGATCCAACCATAAAATGATAATTACACCCATAAATGGATCATTATCACACCCA (double strand) [Right end ORF1c]”, under “T-RL, second replicate -1.51”, the binding signal (log2 fold vs WT) is -2.06. Consider “AATGTTGTTGATGCAACCATAAAGTGATATTTAATAATTATTTATAATCAGCAACTTAACCACAAAACAACCATATATTGATATCTCACAAAACAACCATAAGTTGATATTTTTGTGAATAGGATATTCCAACCTTCATAGTTTAGTAAGAA (double strand) [Left end hyperactive 4673]”, for which, where the note is “T-RL”, the binding signal amounted to 1.53 fold vs WT. For the setting “T-RL”, “AATGTTGTTGATGCAACCATAAAGTGATATTTACGAATCAATTAAAATCATAGGCTTAATCGAAAAACAACCATATATTGATATCTCATAAAACAACCATAAGTTGATATTTTGGTGAAAAGGATATTCCAACCTTCATAGTTTAGTAAGAA (double strand) [Left end hyperactive 4666]” came in with a binding signal of 2.58 fold vs WT. “TTTTGTGTTGAAACAACCATAAAGTGATATTTACGAATCAATTAAAATCATAGGCTTAATCGAAAAACAACCATATCTTGATATCGCATAAAACAACCATAAGTTGATATTTTGGTGAAAAGGATATTCCAACCTTCATAGTTTAGTAAGAA (double strand) [Left end hyperactive 4667]”: the binding signal (T-RL) was determined as 2.07 fold vs WT.

With “ACATTTGTTGATACAACCATAAAATGATAATTACACCCATAAATTGATAATTATCACACCCATAAATTGATATTGCCTCTGTACGATCCAGTGATCTCCAAGACGCTGCAAGAGTCCGCACCGACAC (double strand) [Right end hyperactive 2702]”, the binding signal (T-RL) was 1.71 fold vs WT.

Under “T-RL”, “TTTTGTGTTGATGCAACCATAAAGTGATAACAACGAATCAATTAAAATCATAGGCTTAATCGAAAAACAACCATATCTTGATATCGCATAAAACAACCATAAGTTGATATTTTGGTGAAAAGGATATTCCAACCTTCATAGTTTAGTAAGAA (double strand) [Left end hyperactive 4671]” registered a binding signal of 1.55 fold vs WT. Take “ACATTTGTTGATACAACCATAAAATGATAATTATACCCATAAATTGATAATTATCACACCCATAAATTGATATTGCCTCTGATCATAGTCAGACCAACATTGCTACGACCCGTATTCGCACCGACAC (double strand) [Right end variant 985]”: where the note is “T-RL, second replicate -1.2264”, the binding signal (log2 fold vs WT) is -1.42. Take “AATGTTGTTGATGCAACCATAAAGTGATATTTAATAATTATTTATAATCAGCAACTTAACCACAAAACAACCATATATTCATATCTCACAAAACAACCATAAGTTGATATTTTTGTGAATCGAGTATTTCAGCAAAACTACTGCAGTAAGAA (double strand) [Left end variant 3243]”: the binding signal (log2 fold vs WT) (T-RL, second replicate -1.5930) is -2.53.

Turning to “TGTTGATACAACCATCAAATGGTAATTACACCCATAAATTGATAATTATCACACCCA (double strand) [Right end ORF3a]”, the binding signal (log2 fold vs WT) (T-RL, second replicate -0.05) is -0.64. As for “ACATTAGTTGATACAACCATAAAATGATAATTACACCCATAAATTGATAATTATCACACCCATAAATTGATATTGCCTCTGATCATAGTCAGACCAACATTGCTACGACCCGTATTCGCACCGACAC (double strand) [Right end variant 1068]”, the binding signal (log2 fold vs WT) (T-RL, second replicate -5.4441) is -6.17. “ACATTTGGTGATACAACCATAAAATGATAATTACACCCATAAATTGATAATTATCACACCCATAAATTGATATTGCCTCTGATCATAGTCAGACCAACATTGCTACGACCCGTATTCGCACCGACAC (double strand) [Right end variant 1063]”: the binding signal (log2 fold vs WT) (T-RL, second replicate -5.3052) was -6.47. With “AATGTTGTTGATGCAACCATAAAGTGATATTTAATAATTATTTATAATCAGCAACTTAACCTCAAAACAACCATATATTGATATCTCACAAAACAACCATAAGTTGATATTTTTGTGAATCGAGTATTTCAGCAAAACTACTGCAGTAAGAA (double strand) [Left end variant 3295]”, under “T-RL, second replicate 1.3754”, the binding signal (log2 fold vs WT) was 0.963.

Where the note is “T-RL”, “ACATTTGTTGATACAACCATAAAATGATAATTACACCCATAAATTGATAATTATCACACCCATAAATTGATATTGCCTCTGATCATATTTAATAATTAATTTATATATTTAAGTCAGGCACCGACAC (double strand) [Right end hyperactive 2691]” returned a binding signal of 2.63 fold vs WT. As to “ACATTGGTTGATACAACCATAAAATGATAATTACACCCATAAATTGATAATTATCACACCCATAAATTGATATTGCCTCTGATCATAGTCAGACCAACATTGCTACGACCCGTATTCGCACCGACAC (double strand) [Right end variant 1069]”, the binding signal (log2 fold vs WT) (T-RL, second replicate -6.7160) was -6.61. For the sequence “ACATTTGTTGATACAACCATAAAATGATAATTACACCCATAAATTGATAATTATCACACCCATAAATTGATATTGCCTCTGTTGGCGCCCGGCCCTCAGGCCCTGCAGTGAGTTCCAGCACCGACAC (double strand) [Right end hyperactive 2699]”, where the note is “T-RL”, the binding signal stood at 1.77 fold vs WT.

“AATGTTGTTGATGCAACCATAAAGTGATATTTAATAATTATTTATAATCAGCAACTTAACCACAAAACAACCATATATTGATATCTCACAAAACAACCATAAGTTCATATTTTTGTGAATCGAGTATTTCAGCAAAACTACTGCAGTAAGAA (double strand) [Left end variant 3165]”: the binding signal (log2 fold vs WT) (T-RL, second replicate -1.3719) is -2.25. Regarding “ACATTCGTTGATACAACCATAAAATGATAATTACACCCATAAATTGATAATTATCACACCCATAAATTGATATTGCCTCTGATCATAGTCAGACCAACATTGCTACGACCCGTATTCGCACCGACAC (double strand) [Right end variant 1070]”, the binding signal (log2 fold vs WT) (T-RL, second replicate) is -1.95. As for “AATGTTGTTGATGCAACCATAAAGTGATATTTAATAATTATTTATAATCAGCAACTGAACCACAAAACAACCATATATTGATATCTCACAAAACAACCATAAGTTGATATTTTTGTGAATCGAGTATTTCAGCAAAACTACTGCAGTAAGAA (double strand) [Left end variant 3311]”, under “T-RL, second replicate -0.9350”, the binding signal (log2 fold vs WT) was -1.73.

With “ACATTTGTTGATACAACCATAAAATGATAATTACACCCATAAATTGATAATTATCACACCCATAAATTGATATTGCCTCTTTATGCAGGACGACGTACGCGTTCCATATAAACCTGTGCACCGACAC (double strand) [Right end hyperactive 2696]”, the binding signal (T-RL) worked out at 1.83 fold vs WT. In the case of “AATGTTGTTGAAACAACCATAAAGTGATAACAACGAATCAATTAAAATCATAGGCTTAATCGAAAAACAACCATATCTTGATATCGCATAAAACAACCATAAGTTGATATTTTGGTGAAAAGGATATTCCAACCTTCATAGTTTAGTAAGAA (double strand) [Left end hyperactive 4668]”, the binding signal (T-RL) is 1.76 fold vs WT. Sequence “ACATTTGTTGATACAACCATAAAATGATAATTACACCCATAAATTGATAATTATCACACCCATAAATTGATATTGCCTCTGGCGCTCTGTACCCCGCTCGGTCCTCCCGCGCATCGCGCACCGACAC (double strand) [Right end hyperactive 2698]” yielded a binding signal (T-RL) of 1.59 fold vs WT.

For “AATGTTGTTGATGCAACCATAAAGTGATATTTAATAATTATTTATAATCAGCAACTTAACCACAAAACAACCAGATATTGATATCTCACAAAACAACCATAAGTTGATATTTTTGTGAATCGAGTATTTCAGCAAAACTACTGCAGTAAGAA (double strand) [Left end variant 3260]”, under “T-RL, second replicate -0.7874”, the binding signal (log2 fold vs WT) is -1.91. Turning to “TGTGGATACAACCATAAAATGATAATTACACCCATAAATGGATCATTATCACCCCCA (double strand) [Right end ORF1a]”, the binding signal (log2 fold vs WT) (T-RL integration, second replicate -1.08) is -1.47. On to “TTTTGTGTTGAAACAACCATAAAGTGATAACAACGAATCAATTAAAATCATAGGCTTAATCGAAAAACAACCATATCTTGATATCGCACAAAACAACCATAAGTTGATATTTTGGTGAAAAGGATATTCCAACCTTCATAGTTTAGTAAGAA (double strand) [Left end hyperactive 4672]”, for which the binding signal (T-RL) stood at 1.54 fold vs WT. On the same count and under the same terms, next, “ACATTTGTTGATACAACCATAAAATGATAATTACACCCATAAATTGATAATTATCACACCCATAAATTGATATTGCCTCTGATCATAATTGTTATCCGCTCACAATTCCAGTCAGACGCACCGACAC (double strand) [Right end hyperactive 2694]”: 1.89 fold vs WT. Regarding “AATGTTGTTGATGCAACCATAAAGTGATATTTAATAATTATTTATAATCAGCAACTTAACCACAAAACAACCATATATTGATATCTCACAAAACACCCATAAGTTGATATTTTTGTGAATCGAGTATTTCAGCAAAACTACTGCAGTAAGAA (double strand) [Left end variant 3195]”, where the note is “T-RL, second replicate 0.7256”, the binding signal (log2 fold vs WT) came to 0.722. Regarding “ACATTTTTTGATACAACCATAAAATGATAATTACACCCATAAATTGATAATTATCACACCCATAAATTGATATTGCCTCTGATCATAGTCAGACCAACATTGCTACGACCCGTATTCGCACCGACAC (double strand) [Right end variant 1066]”, under “T-RL, second replicate -1.9162”, the binding signal (log2 fold vs WT) was -2.48. As for “ACATTTGTTGATACAACCATAAAATGATAATTACACCCATAAATTGATAATTATCACACCCATAAATTGATATTGCCTCTCCGACCCGGAAGAGGGCGCCTAGAATTGGGAGTGGTCGCACCGACAC (double strand) [Right end hyperactive 2700]”, where the note is “T-RL”, the binding signal was determined as 1.72 fold vs WT. As to “TGTTGATACAACCATTAAATGGTAATTCCACCCAAATATTGATAATTATCACACCCA (double strand) [Right end ORF3c]”, the binding signal (log2 fold vs WT) (T-RL, second replicate -1.89) was -2.49. In turn, “ACATTTGTTGATACAACCATAAAATGATAATTACACCCATAAATTGATAATTATCACACCCATAAATTGATATTGCCTCTCAGACCACATAGCTGCCATGTCCTGATCGGACGGACCGCACCGACAC (double strand) [Right end hyperactive 2701]” showed a binding signal (T-RL) of 1.7 fold vs WT. On to “TGTTGATACAACCATAAAAGGATTATTACACCCATTAATTGATAATTATCACACCCA (double strand) [Right end ORF2a]”, for which the binding signal (log2 fold vs WT) (T-RL, second replicate -1.82) is -2.22. For “TTTTGTGTTGAAACAACCATAAAGTGATAACAACGAATCAATTAAAATCATAGGCTTAATCGAAAAACAACCATATCTTGATATCGCATAAAACAACCATAAGTTGATATTTTTGTGAATAGGATATTCCAACCTTCATAGTTTAGTAAGAA (double strand) [Left end hyperactive 4670]”, where the note is “T-RL”, the binding signal stood at 1.67 fold vs WT.
